Sequences and labels used below:
B1: 1B20 variant A5 (antibody, part only; not given: light chain, probably the common parent VL, V domains shown, part only)
VH: QVQLVQSGAEVKKPGESLKISCKGSGYSFTDYYISWVRQMPGKGLEWMGWIYPGDSYTHYNPMFQGQVTISADKSISTAYLQWSSLKASDTAMYYCARDRWSRPYFDIWGQGTLVTVSS
B2: 1B20 variant E8 (antibody, part only; not given: light chain, probably the common parent VL, V domains shown, part only)
VH: QVQLVQSGAEVKKPGESLKISCKGSGYSFTNYYITWVRQMPGKGLEWMGMIYPGDSYTRYSPKFQGQVTISADKSISTAYLQWSSLKASDTAMYYCARDHWSKPLSDVWGQGTLVTVSS
B3: 1B20 variant C1 (antibody, part only; not given: light chain, probably the common parent VL, V domains shown, part only)
VH: QVQLVQSGAEVKKPGESLKISCKGSGYSFTNYYISWVRQMPGKGLEWMGMIYPGDSYTRYSPKFQGQVTISADKSISTAYLQWSSLKASDTAMYYCARDHWYRPYSDIWGQGTLVTVSS
B4: 1B20 variant E3 (antibody, part only; not given: light chain, V domains shown, part only)
VH: QVQLVQSGAEVKKPGESLKISCKGSGYSFTDYYISWVRQMPGKGLEWMGMIYPGDSYTSYSPRFQGQVTISADKSISTAYLQWSSLKASDTAMYYCARDYWYRPFSDIWGQGTLVTVSS
B5: 1B20 variant H3 (antibody, part only; not given: light chain, probably the common parent VL, V domains shown, part only)
VH: QVQLVQSGAEVKKPGESLKISCKGSGYSFTNYYITWVRQMPGKGLEWMGMIYPGDSYTHYSQRFQGQVTISADKSISTAYLQWSSLKASDTAIYYCARDHWSRPLFDVWGQGTLVTVSS
B6: 1B20 variant C7 (antibody, part only; not given: light chain, probably the common parent VL, V domains shown, part only)
VH: QVQLVQSGAEVKKPGESLKISCKGSGYSFTDYYISWVRQMPGKGLEWMGWIYPGDSYTHYSHNFQGQVTISADKSISTAYLQWSSLKASDTAMYYCARDHWSRPFSDVWGQGTLVTVSS
B7: 1B20 variant E4 (antibody, part only; not given: light chain, probably the common parent VL, V domains shown, part only)
VH: QVQLVQSGAEVKKPGESLKISCKGSGYSFTNYYISWVRQMPGKGLEWMGWIYPGDSYTSYNQKFQGQVTISADKSISTAYLQWSSLKASDTAMYYCARDYWSKPYSDVWGQGTLVTVSS
B8: 1B20 variant C8 (antibody, part only; not given: light chain, V domains shown, part only)
VH: QVQLVQSGAEVKKPGESLKISCKGSGYSFTNYYIAWVRQMPGKGLEWMGMIYPGDSYTSYSHRFQGQVTISADKSISTAYLQWSSLKASDTAMYYCARDHWYRPYFDIWGQGTLVTVSS
B9: 1B20 variant G7 (antibody, part only; not given: light chain, probably the common parent VL, V domains shown, part only)
VH: QVQLVQSGAEVKKPGESLKISCKGSGYSFTDYYISWVRQMPGKGLEWMGWIYPGDSYTHYSPSFQGQVTISADKSISTAYLQWSSLKASDTAMYYCARDHWSKPYFDVWGQGTLVTVSS
B10: 1B20 variant C6 (antibody, part only; not given: light chain, V domains shown, part only)
VH: QVQLVQSGAEVKKPGESLKISCKGSGYSFTNYYITWVRQMPGKGLEWMGMIYPGDSYTHYNPSFQGQVTISADKSISTAYLQWSSLKASDTAMYYCARDHWYKPLFDIWGQGTLVTVSS
B11: 1B20 variant G6 (antibody, part only; not given: light chain, probably the common parent VL, V domains shown, part only)
VH: QVQLVQSGAEVKKPGESLKISCKGSGYSFTDYYINWVRQMPGKGLEWMGMIYPGDSYTNYNPKFQGQVTISADKSISTAYLQWSSLKASDTAIYYCARDHWSRPFSDVWGQGTLVTVSS
B12: 1B20 variant A9 (antibody, part only; not given: light chain, probably the common parent VL, V domains shown, part only)
VH: QVQLVQSGAEVKKPGESLKISCKGSGYSFTNYYISWVRQMPGKGLEWMGMIYPGDSYTRYSPKFQGQVTISADKSISTAYLQWSSLKASDTAMYYCARDHWYRPYSDIWGQGTLVTVSS
B13: 1B20 variant B8 (antibody, part only; not given: light chain, V domains shown, part only)
VH: QVQLVQSGAEVKKPGESLKISCKGSGYSFTNYYISWVRQMPGKGLEWMGMIYPGDSYTHYSPNFQGQVTISADKSISTAYLQWSSLKASDTAMYYCARDYWSKPYFDVWGQGTLVTVSS
B14: 1B20 variant H7 (antibody, part only; not given: light chain, probably the common parent VL, V domains shown, part only)
VH: QVQLVQSGAEVKKPGESLKISCKGSGYSFTDYYISWVRQMPGKGPEWMGMIYPGDSYTRYSQKFQGQVTISADKSISTAYLQWSSLKASDTAIYYCARDHWSRPLSDIWGQGTLVTVSS
B15: 1B20 variant E5 (antibody, part only; not given: light chain, probably the common parent VL, V domains shown, part only)
VH: QVQLVQSGAEVKKPGESLKISCKGSGYSFTDYYISWVRQMPGKGLEWMGWIYPGDSYTHYNPNFQGQVTISADKSISTAYLQWSSLKASDTAMYYCARDRWSTPYFDVWGQGTLVTVSS
B16: 1B20 variant D8 (antibody, part only; not given: light chain, V domains shown, part only)
VH: QVQLVQSGAEVKKPGESLKISCKGSGYSFTDYYISWVRQMPGKGLEWMGMIYPGDSYTHYSQSFQGQVTISADKSISTAYLQWSSLKASDTAMYYCARDHWYRPLFDIWGQGTLVTVSS
B17: 1B20 variant F5 (antibody, part only; not given: light chain, probably the common parent VL, V domains shown, part only)
VH: QVQLVQSGAEVKKPGESLKISCKGSGYSFTDYYITWVRQMPGKGLEWMGMIYPGDSYTNYRHNFQGQVTISADKSISTAYLQWSSLKASDTAMYYCARDYWSRPYFDIWGQGTLVTVSS
B18: 1B20 variant A3 (antibody, part only; not given: light chain, V domains shown, part only)
VH: QVQLVQSGAEVKKPGESLKISCKGSGYSFTDYYISWVRQMPGKGLEWMGMIYPGDSYTRYSPNFQGQVTISADKSISTAYLQWSSLKASDTAMYYCARDHWYRPLSDIWGQGTLVTVSS
B19: 1B20 variant D3 (antibody, part only; not given: light chain, V domains shown, part only)
VH: QVQLVQSGAEVKKPGESLKISCKGSGYSFTDYYITWVRQMPGKGLEWMGMIYPGDSYTRYSPKFQGQVTISADKSISTAYLQWSSLKASDTAMYYCARDYWSKPFFDVWGQGTLVTVSS

The source of these data is patent US20130071379A1.

The term Kd denotes the equilibrium constant for the complex coming apart. Read a low Kd as higher affinity.

The target of this experiment is PCSK9. Put plainly: Biacore SPR. Background: Surface plasmon resonance follows binding to a sensor surface in real time, without labels.
Consider B1, for which the Kd was found to be 6.81 nM. This counts as single-digit nanomolar.

B2 yielded a Kd of 1.62 nM. As for B3, the figure is 1.65 nM.

On to B4, for which the dissociation constant (Kd) is 2.62 nM. As for B5, the figure is 1.89 nM; as for B6, 2.53 nM; as for B7, 2.38 nM. To B8 belongs 3.73 nM; to B9, 2.05 nM. As for B10, the Kd is 2.1 nM. This Kd and that of the molecule before are within 1.5-fold of each other.

Turning to B11, the dissociation constant (Kd) is 2.2 nM. For the molecule B12, the Kd worked out at 1.95 nM. To B13 belongs 4.47 nM; to B14, 4.9 nM. The molecule B15 returned a Kd of 4.22 nM. To B16 belongs 3.21 nM; to B17, 2.41 nM; to B18, 7.93 nM. On to B19, for which the Kd stood at 2.68 nM.
